Test results taken from IntAct's records for PubMed 24970085.

B1: Lysosome-associated membrane glycoprotein 1 (Homo sapiens), P11279 (parent)
chain: MAAPGSARRPLLLLLLLLLLGLMHCASAAMFMVKNGNGTACIMANFSAAFSVNYDTKSGPKNMTFDLPSDATVVLNRSSCGKENTSDPSLVIAFGRGHTLTLNFTRNATRYSVQLMSFVYNLSDTHLFPNASSKEIKTVESITDIRADIDKKYRCVSGTQVHMNNVTVTLHDATIQAYLSNSSFSRGETRCEQDRPSPTTAPPAPPSPSPSPVPKSPSVDKYNVSGTNGTCLLASMGLQLNLTYERKDNTTVTRLLNINPNKTSASGSCGAHLVTLELHSEGTTVLLFQFGMNASSSRFFLQGIQLNTILPDARDPAFKAANGSLRALQATVGNSYKCNAEEHVRVTKAFSVNIFKVWVQAFKVEGGQFGSVEECLLDENSMLIPIAVGGALAGLVLIVLIAYLVGRKRSHAGYQTI

Variants of: B1
Settings: with glyc_lassj GPC

Row | Variant | effect of a mutation on the interaction
1 | MAAPGSARRPLLLLLLLLLLGLMHCASAAMFMVKNGNGTACIMANFSAAFSVNYDTKSGPKNMTFDLPSDATVVLSRSSCGKENTSDPSLVIAFGRGHTLTLNFTRNATRYSVQLMSFVYNLSDTHLFPNASSKEIKTVESITDIRADIDKKYRCVSGTQVHMNNVTVTLHDATIQAYLSNSSFSRGETRCEQDRPSPTTAPPAPPSPSPSPVPKSPSVDKYNVSGTNGTCLLASMGLQLNLTYERKDNTTVTRLLNINPNKTSASGSCGAHLVTLELHSEGTTVLLFQFGMNASSSRFFLQGIQLNTILPDARDPAFKAANGSLRALQATVGNSYKCNAEEHVRVTKAFSVNIFKVWVQAFKVEGGQFGSVEECLLDENSMLIPIAVGGALAGLVLIVLIAYLVGRKRSHAGYQTI [N76S] | disrupting interaction
